From patent publication US8906356 (MIT, dated 2014) come the findings set out here.

For test [1], the target named is T1, IL-2 receptor (IL-2Rα, IL-2Rβ and IL-2Rγ) on cells (human, UniProt P01589 22-272; P14784 27-551; P31785 23-369).
T1 sequence (looked up) 1: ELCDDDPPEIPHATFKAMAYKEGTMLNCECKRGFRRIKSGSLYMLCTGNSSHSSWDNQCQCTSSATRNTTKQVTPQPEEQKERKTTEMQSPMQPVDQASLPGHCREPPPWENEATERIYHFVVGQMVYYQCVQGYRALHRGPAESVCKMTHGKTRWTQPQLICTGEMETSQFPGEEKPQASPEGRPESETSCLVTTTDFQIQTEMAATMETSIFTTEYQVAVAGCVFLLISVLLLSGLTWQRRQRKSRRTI
T1 sequence (looked up) 2: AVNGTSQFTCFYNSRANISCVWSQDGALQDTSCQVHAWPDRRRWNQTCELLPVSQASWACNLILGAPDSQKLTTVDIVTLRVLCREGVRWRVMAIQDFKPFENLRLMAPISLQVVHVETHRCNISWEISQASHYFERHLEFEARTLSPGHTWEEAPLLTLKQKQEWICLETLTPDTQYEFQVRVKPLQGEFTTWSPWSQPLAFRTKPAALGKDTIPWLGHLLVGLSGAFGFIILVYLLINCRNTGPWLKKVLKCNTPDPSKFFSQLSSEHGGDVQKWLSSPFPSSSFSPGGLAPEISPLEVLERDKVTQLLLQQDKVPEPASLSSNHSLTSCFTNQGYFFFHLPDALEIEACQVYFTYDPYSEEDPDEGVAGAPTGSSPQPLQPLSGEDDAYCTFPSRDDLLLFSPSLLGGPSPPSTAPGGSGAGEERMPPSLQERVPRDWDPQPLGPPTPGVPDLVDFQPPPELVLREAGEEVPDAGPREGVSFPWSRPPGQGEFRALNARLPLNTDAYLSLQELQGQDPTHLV
T1 sequence (looked up) 3: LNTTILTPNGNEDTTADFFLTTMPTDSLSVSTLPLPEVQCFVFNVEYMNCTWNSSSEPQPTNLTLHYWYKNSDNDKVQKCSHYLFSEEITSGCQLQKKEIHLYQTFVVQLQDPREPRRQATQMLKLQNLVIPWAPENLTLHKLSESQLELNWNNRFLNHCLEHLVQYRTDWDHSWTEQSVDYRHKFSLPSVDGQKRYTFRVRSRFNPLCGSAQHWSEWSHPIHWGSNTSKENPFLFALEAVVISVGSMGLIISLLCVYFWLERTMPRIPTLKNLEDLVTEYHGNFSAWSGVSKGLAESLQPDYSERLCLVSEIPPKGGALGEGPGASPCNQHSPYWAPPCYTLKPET
The test can be described thus: cell-based or functional assay.

The target in test [2] is T2, IL-2 receptor α subunit (IL-2Rα, CD25) on Kit225 cells (human, UniProt P01589 22-272).
T2 construct: whole, on cells; Kit225 cells express all three IL-2 receptor subunits, with IL-2Rα in ~10 fold excess; also called p55
T2 sequence (looked up): T1 sequence (looked up) 1
The test can be described thus: cell surface titration on Kit225 cells, flow cytometry with anti-FLAG detection. How it is done:
Determination of IL-2Rα binding affinities of IL-2 mutants. […] At low IL-2 mutant concentrations, the total volume was increased to maintain an excess number of IL-2 mutant molecules over the number of IL-2Rα. After incubation, cells were kept on ice and stained with mouse anti-FLAG monoclonal antibody M2 (Sigma Aldrich, St. Louis, Mo.), followed by an Alexa Fluor 488 conjugated goat anti-mouse antibody (Invitrogen, Carlsbad, Calif.), to detect cell-surface bound protein. The mean single-cell fluorescence was measured, and the dissociation constant (K_D) and the 95% confidence interval were determined as previously described, using the following equation: Fobs = cL_0/(K_D + L_0), where $Fobs$ is the background-corrected mean fluorescence, L_0 is the initial concentration of the protein being measured, and c is the proportionality constant.
The IL-2Rα binding affinity of the IL-2 mutants was measured in using Kit225 cells, a human T cell line that is dependent on IL-2 for growth. Kit225 constitutively expresses all three subunits of the IL-2 receptor, with IL-2Rα in ~10 fold excess. The IL-2Rα binding affinity was measured using cell surface titrations on Kit225.

The target in test [3] is T2, IL-2 receptor α subunit (IL-2Rα, CD25) …. Put plainly: cell surface titration on Kit225 cells (method not restated for the double mutant).

Residue numbers refer to the chain shown, from its start. Numbers in names are those of the source.

B1: Q126T (2-4 IL-2 with a Q126T point mutation) (ligand)
chain: APTSSSTKKTQLQLEHLLLDLQMILNGISNHKNPRLARMLTFKFYMPEKATELKHLQCLEEELKPLEEALRLAPSKNFHLRPRDLISDVNVIVLELKGSETTFMCEYADETATIVEFLNRWITFCTSIISTLT
A word on the Kd: it is the concentration at which binding is half-saturated. High values mean weaker binding, low ones tighter binding. Consider B1, for which the “IC50 of inhibition of STAT5 phosphorylation in Kit225 cells with 25 pM wild type IL-2” value in test [1] worked out at 1.9 nM. This molecule also gave a dissociation constant Kd in test [2] of 0.109 nM.

B2: V91R (2-4 IL-2 with a V91R point mutation) (ligand)
chain: B1 chain with V91R, T126Q
B2: the “IC50 of inhibition of STAT5 phosphorylation in Kit225 cells with 25 pM wild type IL-2” value in test [1] amounted to 2.4 nM. The affinity in test [2], expressed as Kd, was 0.119 nM.

B3: Q126T/V91R double mutant (ligand)
chain: B1 chain with V91R
Consider B3, for which binding in test [3] was characterised by a dissociation constant (Kd) of 2 nM.

B4: 2-4 IL-2 (engineered mutant of human IL-2 with high affinity for IL-2Rα) (ligand)
chain: B1 chain with T126Q
In test [2], B4 showed a Kd of 0.199 nM.
